The numbers were not newly measured in paper PMC3433420, which cites them from elsewhere.

Read-outs that look alike come from different tables or passages of the source.

Some targets named below: PLCG1-NC (Homo sapiens) (UniProt P19174); PLCG1-C (Homo sapiens) (UniProt P19174); TENC1 (Homo sapiens) (UniProt Q63HR2); HSH2D (Homo sapiens) (UniProt Q96JZ2); MATK (Homo sapiens) (UniProt P42679); SYK-C (Homo sapiens) (UniProt P43405); PIK3R1-N (Homo sapiens) (UniProt P27986); BLK (Homo sapiens) (UniProt P51451); ITK (Homo sapiens) (UniProt Q08881); CRK (Homo sapiens) (UniProt P46108); SUPT6H (Homo sapiens) (UniProt Q7KZ85); SH2B3 (Homo sapiens) (UniProt Q9UQQ2); PLCG2-NC (Homo sapiens) (UniProt P16885); LYN (Homo sapiens) (UniProt P07948); FGR (Homo sapiens) (UniProt P09769); VAV3 (Homo sapiens) (UniProt Q9UKW4); GRB14 (Homo sapiens) (UniProt Q14449); SH2B (Homo sapiens) (UniProt Q9NRF2); PLCG2-N (Homo sapiens) (UniProt P16885); PIK3R1-NC (Homo sapiens) (UniProt P27986); GRB10 (Homo sapiens) (UniProt Q13322); TNS3 (Homo sapiens) (UniProt Q68CZ2); SRC (Homo sapiens) (UniProt P12931); PIK3R2-NC (Homo sapiens) (UniProt O00459); BCAR3 (Homo sapiens) (UniProt O75815); YES1 (Homo sapiens) (UniProt P07947); SHC2-PTB (Homo sapiens) (UniProt P98077); SHB (Homo sapiens) (UniProt Q15464); SH2D3C (Homo sapiens) (UniProt Q8N5H7); PIK3R2-N (Homo sapiens) (UniProt O00459).

Common to all, as to conditions: cited from earlier work
Data set [1] concerns the target SYK-NC (Homo sapiens) (UniProt P43405).
The target of data set [2] is GRB7 (Homo sapiens) (UniProt Q14451).
For data set [3], the target named is SLA (Homo sapiens) (UniProt Q13239).
In data set [4] the target is ABL2 (Homo sapiens) (UniProt P42684).
In data set [5] the target is PIK3R3-NC (Homo sapiens) (UniProt Q92569).
The target in data set [6] is RASA1-N (Homo sapiens) (UniProt P20936).
Data set [7] has as its target SHC1-PTB (Homo sapiens) (UniProt P29353).
For data set [8], the target named is VAV2 (Homo sapiens) (UniProt P52735).
The target is the same in data set [9]. The source holds these as a separate data set.
For data set [10], the target named is SYK-NC (Homo sapiens) (UniProt P43405). This is another data set of the same source.
Data set [11] has as its target GRB7 (Homo sapiens) (UniProt Q14451). The source holds these as a separate data set.
Data set [12] addresses ABL2 (Homo sapiens) (UniProt P42684). This is another data set of the same source.
Data set [13] has as its target TNS4 (Homo sapiens) (UniProt Q8IZW8).
The target in data set [14] is NCK2 (Homo sapiens) (UniProt O43639).
In data set [15] the target is SHC1-PTB (Homo sapiens) (UniProt P29353). The source holds these as a separate data set.
Data set [16] deals with RASA1-NC (Homo sapiens) (UniProt P20936).
The target of data set [17] is SYK-NC (Homo sapiens) (UniProt P43405). This is another data set of the same source.
Data set [18] has as its target GRB7 (Homo sapiens) (UniProt Q14451). The source holds these as a separate data set.
In data set [19] the target is SLA (Homo sapiens) (UniProt Q13239). This is another data set of the same source.
Data set [20] addresses ABL2 (Homo sapiens) (UniProt P42684). The source holds these as a separate data set.
In data set [21] the target is TNS4 (Homo sapiens) (UniProt Q8IZW8). This is another data set of the same source.
Data set [22] has as its target PIK3R3-NC (Homo sapiens) (UniProt Q92569). The source holds these as a separate data set.
Data set [23] concerns the target RASA1-N (Homo sapiens) (UniProt P20936). The source holds these as a separate data set.
Data set [24] has as its target NCK2 (Homo sapiens) (UniProt O43639). This is another data set of the same source.
In data set [25] the target is SHC1-PTB (Homo sapiens) (UniProt P29353). The source holds these as a separate data set.
The target in data set [26] is VAV2 (Homo sapiens) (UniProt P52735). The source holds these as a separate data set.
Data set [27] addresses RASA1-NC (Homo sapiens) (UniProt P20936). This is another data set of the same source.

Chain of GRB7 (Homo sapiens) (Q14451 426-532): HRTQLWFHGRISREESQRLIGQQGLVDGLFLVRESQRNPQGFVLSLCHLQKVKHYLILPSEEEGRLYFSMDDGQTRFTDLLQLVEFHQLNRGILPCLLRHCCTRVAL
Chain of VAV2 (Homo sapiens) (P52735 668-772): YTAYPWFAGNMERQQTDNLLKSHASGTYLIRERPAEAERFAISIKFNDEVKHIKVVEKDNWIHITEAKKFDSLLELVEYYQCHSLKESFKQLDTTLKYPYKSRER
Chain of SHC1-PTB (Homo sapiens) (P29353 483-583): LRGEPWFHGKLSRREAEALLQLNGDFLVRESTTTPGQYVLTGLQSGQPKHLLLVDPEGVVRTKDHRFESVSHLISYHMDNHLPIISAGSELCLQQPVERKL
Chain of ABL2 (Homo sapiens) (P42684 168-268): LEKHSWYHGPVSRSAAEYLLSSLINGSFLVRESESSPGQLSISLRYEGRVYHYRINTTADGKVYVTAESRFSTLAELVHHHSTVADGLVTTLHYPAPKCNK
Chain of TNS4 (Homo sapiens) (Q8IZW8 444-561): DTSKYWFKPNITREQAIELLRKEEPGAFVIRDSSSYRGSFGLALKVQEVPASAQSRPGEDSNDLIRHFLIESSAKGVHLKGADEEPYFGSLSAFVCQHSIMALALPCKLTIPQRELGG
Chain of NCK2 (Homo sapiens) (O43639 280-380): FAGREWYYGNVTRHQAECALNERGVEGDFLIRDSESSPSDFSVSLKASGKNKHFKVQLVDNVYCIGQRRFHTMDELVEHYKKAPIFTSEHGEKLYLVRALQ
Chain of SLA (Homo sapiens) (Q13239 79-180): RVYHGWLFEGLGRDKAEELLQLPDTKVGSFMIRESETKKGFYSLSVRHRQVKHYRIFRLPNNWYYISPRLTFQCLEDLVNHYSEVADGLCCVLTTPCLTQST
Chain of RASA1-NC (Homo sapiens) (P20936 176-446): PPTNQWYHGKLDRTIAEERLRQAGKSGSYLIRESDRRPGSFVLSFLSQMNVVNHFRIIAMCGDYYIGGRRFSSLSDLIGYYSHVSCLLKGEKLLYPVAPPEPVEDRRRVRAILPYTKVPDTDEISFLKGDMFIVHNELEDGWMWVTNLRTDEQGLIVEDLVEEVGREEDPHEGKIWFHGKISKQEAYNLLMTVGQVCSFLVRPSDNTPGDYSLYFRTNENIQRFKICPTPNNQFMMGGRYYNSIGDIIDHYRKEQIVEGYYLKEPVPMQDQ
Chain of RASA1-N (Homo sapiens) (P20936 176-446): as above
Chain of VAV3 (Homo sapiens) (Q9UKW4 667-771): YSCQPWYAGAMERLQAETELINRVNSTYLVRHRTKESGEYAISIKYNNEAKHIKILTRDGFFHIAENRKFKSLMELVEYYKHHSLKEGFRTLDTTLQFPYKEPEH
Chain of SH2D3C (Homo sapiens) (Q8N5H7 215-324): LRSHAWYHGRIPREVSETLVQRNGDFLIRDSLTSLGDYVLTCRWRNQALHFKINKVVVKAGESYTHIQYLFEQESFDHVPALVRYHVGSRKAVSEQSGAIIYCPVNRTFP
Chain of CRK (Homo sapiens) (P46108 8-123): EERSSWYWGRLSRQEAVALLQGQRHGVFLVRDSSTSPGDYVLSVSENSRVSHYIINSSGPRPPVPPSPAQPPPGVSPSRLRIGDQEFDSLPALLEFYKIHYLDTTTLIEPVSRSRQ
Chain of TNS3 (Homo sapiens) (Q68CZ2 1167-1287): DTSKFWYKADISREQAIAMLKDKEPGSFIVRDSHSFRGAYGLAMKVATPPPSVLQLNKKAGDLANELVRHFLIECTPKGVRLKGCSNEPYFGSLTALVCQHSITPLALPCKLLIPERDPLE
Chain of HSH2D (Homo sapiens) (Q96JZ2 29-130): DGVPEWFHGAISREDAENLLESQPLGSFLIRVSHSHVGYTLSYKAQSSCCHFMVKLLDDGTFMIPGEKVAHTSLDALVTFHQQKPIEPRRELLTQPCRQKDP
Chain of SUPT6H (Homo sapiens) (Q7KZ85 1320-1436): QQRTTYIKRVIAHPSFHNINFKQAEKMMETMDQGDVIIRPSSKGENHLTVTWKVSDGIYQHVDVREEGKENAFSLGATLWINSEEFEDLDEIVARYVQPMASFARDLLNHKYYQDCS
Chain of PLCG2-NC (Homo sapiens) (P16885 527-740): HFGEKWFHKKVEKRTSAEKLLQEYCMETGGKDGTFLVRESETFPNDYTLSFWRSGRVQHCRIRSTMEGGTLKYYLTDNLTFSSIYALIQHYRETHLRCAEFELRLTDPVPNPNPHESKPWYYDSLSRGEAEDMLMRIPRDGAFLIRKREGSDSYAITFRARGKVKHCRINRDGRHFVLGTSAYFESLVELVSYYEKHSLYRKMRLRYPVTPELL
Chain of PLCG2-N (Homo sapiens) (P16885 527-740): as above
Chain of GRB14 (Homo sapiens) (Q14449 434-540): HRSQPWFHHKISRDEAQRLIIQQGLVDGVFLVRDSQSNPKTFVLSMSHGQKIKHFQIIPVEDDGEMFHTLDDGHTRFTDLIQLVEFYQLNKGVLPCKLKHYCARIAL
Chain of BLK (Homo sapiens) (P51451 119-225): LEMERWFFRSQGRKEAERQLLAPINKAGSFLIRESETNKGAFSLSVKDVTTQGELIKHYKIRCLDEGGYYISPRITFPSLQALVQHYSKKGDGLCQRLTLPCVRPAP
Chain of LYN (Homo sapiens) (P07948 124-231): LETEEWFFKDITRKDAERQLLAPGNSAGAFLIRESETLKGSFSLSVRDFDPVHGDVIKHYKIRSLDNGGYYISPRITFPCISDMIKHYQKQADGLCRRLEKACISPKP
Chain of SHB (Homo sapiens) (Q15464 405-509): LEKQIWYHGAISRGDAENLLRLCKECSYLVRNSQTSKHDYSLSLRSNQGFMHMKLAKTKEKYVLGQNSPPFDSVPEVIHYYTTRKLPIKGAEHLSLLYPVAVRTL
Chain of SHC2-PTB (Homo sapiens) (P98077 482-582): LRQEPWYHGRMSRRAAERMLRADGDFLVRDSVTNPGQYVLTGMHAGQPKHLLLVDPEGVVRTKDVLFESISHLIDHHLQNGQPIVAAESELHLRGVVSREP
Chain of MATK (Homo sapiens) (P42679 117-216): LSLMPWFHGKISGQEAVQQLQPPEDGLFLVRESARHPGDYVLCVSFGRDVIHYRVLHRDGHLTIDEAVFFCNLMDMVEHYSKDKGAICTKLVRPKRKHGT
Chain of TENC1 (Homo sapiens) (Q63HR2 1135-1252): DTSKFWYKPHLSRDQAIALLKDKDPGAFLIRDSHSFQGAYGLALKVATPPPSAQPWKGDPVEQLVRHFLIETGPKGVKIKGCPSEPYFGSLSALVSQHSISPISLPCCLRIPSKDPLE
Chain of ITK (Homo sapiens) (Q08881 234-343): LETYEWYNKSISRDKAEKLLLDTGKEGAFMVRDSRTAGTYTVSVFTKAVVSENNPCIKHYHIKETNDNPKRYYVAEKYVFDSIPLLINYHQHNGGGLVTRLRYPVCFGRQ
Chain of GRB10 (Homo sapiens) (Q13322 488-579): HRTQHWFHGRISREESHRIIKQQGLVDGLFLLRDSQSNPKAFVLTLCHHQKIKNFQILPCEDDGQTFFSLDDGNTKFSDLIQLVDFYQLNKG
Chain of SH2B3 (Homo sapiens) (Q9UQQ2 359-467): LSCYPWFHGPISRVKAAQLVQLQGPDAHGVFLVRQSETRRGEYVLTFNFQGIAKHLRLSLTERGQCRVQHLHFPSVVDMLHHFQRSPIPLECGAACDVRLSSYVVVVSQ
Chain of BCAR3 (Homo sapiens) (O75815 149-258): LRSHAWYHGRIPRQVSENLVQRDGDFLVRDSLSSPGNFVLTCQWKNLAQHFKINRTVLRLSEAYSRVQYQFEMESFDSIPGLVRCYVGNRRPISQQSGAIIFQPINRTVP
Chain of PIK3R2-N (Homo sapiens) (O00459 325-721): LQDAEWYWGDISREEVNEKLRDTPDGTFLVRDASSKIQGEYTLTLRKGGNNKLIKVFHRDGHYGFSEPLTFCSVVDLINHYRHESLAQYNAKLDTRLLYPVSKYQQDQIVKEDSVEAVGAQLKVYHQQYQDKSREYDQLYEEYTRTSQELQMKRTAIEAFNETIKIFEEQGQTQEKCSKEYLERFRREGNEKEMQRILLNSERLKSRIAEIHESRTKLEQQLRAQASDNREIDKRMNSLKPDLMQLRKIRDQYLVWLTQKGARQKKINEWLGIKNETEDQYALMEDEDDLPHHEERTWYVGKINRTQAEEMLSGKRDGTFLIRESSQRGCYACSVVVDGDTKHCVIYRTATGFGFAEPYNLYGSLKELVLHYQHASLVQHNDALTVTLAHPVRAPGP

…pYLQEYSTKd: the apparent Kd (screen) is 2000 nM in the data set with SYK-NC (Homo sapiens) [1]; 2000 nM in the data set with GRB7 (Homo sapiens) [2]; 2000 nM with SLA (Homo sapiens) [3]; 883 nM in the data set with ABL2 (Homo sapiens) [4]; 2000 nM in the data set with PLCG1-NC (Homo sapiens); 2000 nM in the data set with PIK3R3-NC (Homo sapiens) [5]. Also, the apparent Kd (screen) was 2000 nM in the data set with RASA1-N (Homo sapiens) [6]; 2000 nM with SHC1-PTB (Homo sapiens) [7]; 769 nM in the data set with VAV2 (Homo sapiens) [8]; 2000 nM with VAV2 (Homo sapiens) [9]; 2000 nM with PLCG1-C (Homo sapiens).

As to …pYWHSRLFP, the apparent Kd (screen) with SYK-NC (Homo sapiens) [10] is 1980 nM; in the data set with GRB7 (Homo sapiens) [11], 1690 nM; in the data set with ABL2 (Homo sapiens) [12], 604 nM; in the data set with TNS4 (Homo sapiens) [13] it was 850 nM; with TENC1 (Homo sapiens), 1250 nM; with NCK2 (Homo sapiens) [14] it was 1900 nM. For the same substance, the apparent Kd (screen) was 1700 nM with HSH2D (Homo sapiens), 217 nM with SHC1-PTB (Homo sapiens) [15], 1920 nM with RASA1-NC (Homo sapiens) [16] and 1870 nM with MATK (Homo sapiens).

Turning to …pYQQDFFPKd, the apparent Kd (screen) with SYK-NC (Homo sapiens) [17] is 1280 nM; in the data set with SYK-C (Homo sapiens), 869 nM; with GRB7 (Homo sapiens) [18], 2000 nM; in the data set with PIK3R1-N (Homo sapiens) it was 404 nM; with SLA (Homo sapiens) [19], 2000 nM; with BLK (Homo sapiens), 751 nM. Besides, the apparent Kd (screen) with ITK (Homo sapiens) is 1410 nM; with ABL2 (Homo sapiens) [20], 490 nM; in the data set with CRK (Homo sapiens) it was 408 nM; in the data set with TNS4 (Homo sapiens) [21], 334 nM; with SUPT6H (Homo sapiens), 1030 nM; with SH2B3 (Homo sapiens), 1600 nM. Moreover, the apparent Kd (screen) in the data set with PLCG2-NC (Homo sapiens) is 674 nM; with PIK3R3-NC (Homo sapiens) [22], 850 nM; with LYN (Homo sapiens), 1590 nM; with FGR (Homo sapiens) it was 546 nM; with VAV3 (Homo sapiens) it was 2000 nM; with RASA1-N (Homo sapiens) [23], 1140 nM. Also, the apparent Kd (screen) is 1250 nM in the data set with GRB14 (Homo sapiens); 1820 nM with SH2B (Homo sapiens); 841 nM with PLCG2-N (Homo sapiens); 547 nM with PIK3R1-NC (Homo sapiens); 380 nM with NCK2 (Homo sapiens) [24]; 1290 nM with GRB10 (Homo sapiens). The apparent Kd (screen) in the data set with TNS3 (Homo sapiens) is 736 nM; with SRC (Homo sapiens), 466 nM; with PIK3R2-NC (Homo sapiens) it was 322 nM; with BCAR3 (Homo sapiens) it was 300 nM; in the data set with SHC1-PTB (Homo sapiens) [25], 40 nM; in the data set with VAV2 (Homo sapiens) [26], 216 nM. Also, the apparent Kd (screen) with YES1 (Homo sapiens) was 98 nM; with SHC2-PTB (Homo sapiens), 1310 nM; with SHB (Homo sapiens) it was 1790 nM; with SH2D3C (Homo sapiens), 1910 nM; with RASA1-NC (Homo sapiens) [27], 1170 nM; in the data set with PIK3R2-N (Homo sapiens), 390 nM.
